Measurements from US20240002497A1 (Merck Sharp & Dohme, published 2024).

Assays:
[1] = target: T1, huNav1.7α + β1-β2-β3 (human Nav1.7α co-expressed with human Navβ1, Navβ2 and Navβ3 on cells) (human); test: binding FACS, CHO FlpIn cells
T1 construct: also called huNav1.7-beta1-beta2-beta3; CHO FlpIn huNav1.7α + β1-β2-β3
Summary of the method: (§1)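 Cells are first suspended in FACS buffer at 1×10^5 per well. Next, FLAG3-tagged ISVD is added for 30 minutes at 4° C, and binding is then detected with murine anti-Flag. Finally, samples go into 1 μg/mL propidium iodide before flow cytometry.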

[2] = target: T2, rhNav1.7α + β1-β2-β3 (rhesus Nav1.7α co-expressed with Navβ1, Navβ2 and Navβ3 on cells) (rhesus monkey (α subunit); β subunits …); test: binding FACS, CHO FlpIn cells
T2 construct: also called rhNav1.7-beta1-beta2-beta3; CHO FlpIn rhNav1.7α + β1-β2-β3
Summary of the method: as §1

| Binder | Bmax [1] | EC50 [1] | Bmax [2] | EC50 [2] |
| --- | --- | --- | --- | --- |
| F010301844 (VHH, also called F0103387G04(L11V, A12V, K33R, R39Q, S50Y, S56D, R76N, T83R, V89L, N93R)) VHH: EVQLVESGGGVVQPGGSLRLSCAASGPVFNINRMAWYRQAPGKQRELVAYVTPTGDISYTDSVKGRFTISRDGSKNWSLQMNSLRPEDTALYYCRALLQPDSYSNTRTYWGQGTLVTVSS | 100% | 23 nM | 100% | 11 nM |
| F010302372 (VHH, also called F0103387G04(L11V, A12V, K33R, R39Q, S50Y, S56D, T60A, G73R, W78V, S79Y, T83R, V89L, N93R, S100V, N100cI)) VHH: EVQLVESGGGVVQPGGSLRLSCAASGPVFNINRMAWYRQAPGKQRELVAYVTPTGDISYADSVKGRFTISRDRSKRVYLQMNSLRPEDTALYYCRALLQPDVYSITRTYWGQGTLVTVSS | 100% | 17 nM | 100% | 20 nM |
| F010302371 (VHH, also called F0103387G04(L11V, A12V, K33R, R39Q, S50Y, S56D, T60A, G73R, W78V, S79Y, T83R, V89L, N93R, D99N, S100V, N100cI)) VHH: EVQLVESGGGVVQPGGSLRLSCAASGPVFNINRMAWYRQAPGKQRELVAYVTPTGDISYADSVKGRFTISRDRSKRVYLQMNSLRPEDTALYYCRALLQPNVYSITRTYWGQGTLVTVSS | 100% | 9.4 nM | 100% | 10 nM |
| F010301848 (VHH, also called F0103387G04(L11V, A12V, K33R, R39Q, S50Y, S56D, T60A, G73N, W78V, S79Y, T83R, V89L, N93R)) VHH: EVQLVESGGGVVQPGGSLRLSCAASGPVFNINRMAWYRQAPGKQRELVAYVTPTGDISYADSVKGRFTISRDNSKRVYLQMNSLRPEDTALYYCRALLQPDSYSNTRTYWGQGTLVTVSS | 100% | 44 nM | 100% | 19 nM |
| F010302370 (VHH, also called F0103387G04(L11V, A12V, K33R, R39Q, S50Y, S56D, T60A, G73R, W78V, S79Y, T83R, V89L, N93R, D99S, N100cI)) VHH: EVQLVESGGGVVQPGGSLRLSCAASGPVFNINRMAWYRQAPGKQRELVAYVTPTGDISYADSVKGRFTISRDRSKRVYLQMNSLRPEDTALYYCRALLQPSSYSITRTYWGQGTLVTVSS | 100% | 9 nM | 100% | 7.3 nM |
| F010301866 (VHH, also called F0103387G04(L11V, A12V, K33R, R39Q, S50Y, S56D, T60A, R76N, W78V, S79Y, T83R, V89L, N93R)) VHH: EVQLVESGGGVVQPGGSLRLSCAASGPVFNINRMAWYRQAPGKQRELVAYVTPTGDISYADSVKGRFTISRDGSKNVYLQMNSLRPEDTALYYCRALLQPDSYSNTRTYWGQGTLVTVSS | 100% | 38 nM | 100% | 18 nM |
| F010302385 (VHH, also called F0103387G04(L11V, A12V, K33R, R39Q, S50Y, S56D, T60A, D72Q, W78V, S79Y, T83R, V89L, N93R, D99S, N100cG)) VHH: EVQLVESGGGVVQPGGSLRLSCAASGPVFNINRMAWYRQAPGKQRELVAYVTPTGDISYADSVKGRFTISRQGSKRVYLQMNSLRPEDTALYYCRALLQPSSYSGTRTYWGQGTLVTVSS | 100% | 7.9 nM | 100% | 5 nM |
| F010302325 (VHH, also called F0103387G04(L11V, A12V, K33R, R39Q, S50Y, S56D, T60A, G73R, W78V, S79Y, T83R, V89L, N93R)) VHH: EVQLVESGGGVVQPGGSLRLSCAASGPVFNINRMAWYRQAPGKQRELVAYVTPTGDISYADSVKGRFTISRDRSKRVYLQMNSLRPEDTALYYCRALLQPDSYSNTRTYWGQGTLVTVSS | 96% | 13 nM | 99% | 8.7 nM |
| F010302326 (VHH, also called F0103387G04(L11V, A12V, K33R, R39Q, S50Y, S56D, T60A, W78V, S79Y, T83R, V89L, N93R, D99R)) VHH: EVQLVESGGGVVQPGGSLRLSCAASGPVFNINRMAWYRQAPGKQRELVAYVTPTGDISYADSVKGRFTISRDGSKRVYLQMNSLRPEDTALYYCRALLQPRSYSNTRTYWGQGTLVTVSS | 89% | 6.2 nM | 32% | 18 nM |
| F010302386 (VHH, also called F0103387G04(L11V, A12V, K33R, R39Q, S50Y, S56D, T60A, D72Q, W78V, S79Y, T83R, V89L, N93R, D99S, N100cI)) VHH: EVQLVESGGGVVQPGGSLRLSCAASGPVFNINRMAWYRQAPGKQRELVAYVTPTGDISYADSVKGRFTISRQGSKRVYLQMNSLRPEDTALYYCRALLQPSSYSITRTYWGQGTLVTVSS | 100% | 7.3 nM | 100% | 4.9 nM |
| F010302320 (VHH, also called F0103387G04(L11V, A12V, K33R, R39Q, S50Y, S56D, T60A, G73A, W78V, S79Y, T83R, V89L, N93R)) VHH: EVQLVESGGGVVQPGGSLRLSCAASGPVFNINRMAWYRQAPGKQRELVAYVTPTGDISYADSVKGRFTISRDASKRVYLQMNSLRPEDTALYYCRALLQPDSYSNTRTYWGQGTLVTVSS | 99% | 30 nM | 100% | 21 nM |
| F010302384 (VHH, also called F0103387G04(L11V, A12V, K33R, R39Q, S50Y, S56D, T60A, D72G, W78V, S79Y, T83R, V89L, N93R, D99S, N100cI)) VHH: EVQLVESGGGVVQPGGSLRLSCAASGPVFNINRMAWYRQAPGKQRELVAYVTPTGDISYADSVKGRFTISRGGSKRVYLQMNSLRPEDTALYYCRALLQPSSYSITRTYWGQGTLVTVSS | 100% | 6.2 nM | 100% | 4.3 nM |
| F010302329 (VHH, also called F0103387G04(L11V, A12V, K33R, R39Q, S50Y, S56D, T60A, W78V, S79Y, T83R, V89L, N93R, S100R)) VHH: EVQLVESGGGVVQPGGSLRLSCAASGPVFNINRMAWYRQAPGKQRELVAYVTPTGDISYADSVKGRFTISRDGSKRVYLQMNSLRPEDTALYYCRALLQPDRYSNTRTYWGQGTLVTVSS | 94% | 7.6 nM | 44% | 19 nM |
| F010301847 (VHH, also called F0103387G04(L11V, A12V, K33R, R39Q, S50Y, S56D, T60A, G73N, R76N, W78V, S79Y, T83R, V89L, N93R)) VHH: EVQLVESGGGVVQPGGSLRLSCAASGPVFNINRMAWYRQAPGKQRELVAYVTPTGDISYADSVKGRFTISRDNSKNVYLQMNSLRPEDTALYYCRALLQPDSYSNTRTYWGQGTLVTVSS | 100% | 67 nM | 100% | 29 nM |
| F010302327 (VHH, also called F0103387G04(L11V, A12V, K33R, R39Q, S50Y, S56D, T60A, G73A, W78V, S79Y, T83R, V89L, N93R, D99R)) VHH: EVQLVESGGGVVQPGGSLRLSCAASGPVFNINRMAWYRQAPGKQRELVAYVTPTGDISYADSVKGRFTISRDASKRVYLQMNSLRPEDTALYYCRALLQPRSYSNTRTYWGQGTLVTVSS | 87% | 7 nM | 7% | 93 nM |
| F010302313 (VHH, also called F0103387G04(L11V, A12V, K33R, R39Q, S50Y, S56D, T60A, G73A, W78V, S79Y, T83R, V89L, N93R, N100cI)) VHH: EVQLVESGGGVVQPGGSLRLSCAASGPVFNINRMAWYRQAPGKQRELVAYVTPTGDISYADSVKGRFTISRDASKRVYLQMNSLRPEDTALYYCRALLQPDSYSITRTYWGQGTLVTVSS | 100% | 38 nM | 96% | 34 nM |
| F010302331 (VHH, also called F0103387G04(L11V, A12V, K33R, R39Q, S50Y, S56D, T60A, G73R, W78V, S79Y, T83R, V89L, N93R, S100R)) VHH: EVQLVESGGGVVQPGGSLRLSCAASGPVFNINRMAWYRQAPGKQRELVAYVTPTGDISYADSVKGRFTISRDRSKRVYLQMNSLRPEDTALYYCRALLQPDRYSNTRTYWGQGTLVTVSS | 90% | 6 nM | 38% | 24 nM |
| F010302314 (VHH, also called F0103387G04(L11V, A12V, K33R, R39Q, S50Y, S56D, T60A, G73R, W78V, S79Y, T83R, V89L, N93R, N100cI)) VHH: EVQLVESGGGVVQPGGSLRLSCAASGPVFNINRMAWYRQAPGKQRELVAYVTPTGDISYADSVKGRFTISRDRSKRVYLQMNSLRPEDTALYYCRALLQPDSYSITRTYWGQGTLVTVSS | 100% | 16 nM | 98% | 14 nM |
| F010301845 (VHH, also called F0103387G04(L11V, A12V, K33R, R39Q, S50Y, S56D, W78V, T83R, V89L, N93R)) VHH: EVQLVESGGGVVQPGGSLRLSCAASGPVFNINRMAWYRQAPGKQRELVAYVTPTGDISYTDSVKGRFTISRDGSKRVSLQMNSLRPEDTALYYCRALLQPDSYSNTRTYWGQGTLVTVSS | 100% | 17 nM | 100% | 8 nM |
| F010302315 (VHH, also called F0103387G04(L11V, A12V, K33R, R39Q, S50Y, S56D, T60A, W78V, S79Y, T83R, V89L, N93R, D99R, N100cI)) VHH: EVQLVESGGGVVQPGGSLRLSCAASGPVFNINRMAWYRQAPGKQRELVAYVTPTGDISYADSVKGRFTISRDGSKRVYLQMNSLRPEDTALYYCRALLQPRSYSITRTYWGQGTLVTVSS | 100% | 7.2 nM | 23% | 39 nM |
| F010302317 (VHH, also called F0103387G04(L11V, A12V, K33R, R39Q, S50Y, S56D, T60A, G73R, W78V, S79Y, T83R, V89L, N93R, D99R, N100cI)-FLAG3-HIS6) VHH: EVQLVESGGGVVQPGGSLRLSCAASGPVFNINRMAWYRQAPGKQRELVAYVTPTGDISYADSVKGRFTISRDRSKRVYLQMNSLRPEDTALYYCRALLQPRSYSITRTYWGQGTLVTVSS | 91% | 6.8 nM | 13% | 19 nM |
| F010301846 (VHH, also called F0103387G04(L11V, A12V, K33R, R39Q, S50Y, S56D, S79Y, T83R, V89L, N93R)) VHH: EVQLVESGGGVVQPGGSLRLSCAASGPVFNINRMAWYRQAPGKQRELVAYVTPTGDISYTDSVKGRFTISRDGSKRWYLQMNSLRPEDTALYYCRALLQPDSYSNTRTYWGQGTLVTVSS | 100% | 21 nM | 100% | 11 nM |
| F010302330 (VHH, also called F0103387G04(L11V, A12V, K33R, R39Q, S50Y, S56D, T60A, G73A, W78V, S79Y, T83R, V89L, N93R, S100R)) VHH: EVQLVESGGGVVQPGGSLRLSCAASGPVFNINRMAWYRQAPGKQRELVAYVTPTGDISYADSVKGRFTISRDASKRVYLQMNSLRPEDTALYYCRALLQPDRYSNTRTYWGQGTLVTVSS | 93% | 10 nM | 23% | 200 nM |
